The values that follow come from publication PMC5159498, “IQGAP1 Interaction with RHO Family Proteins Revisited” (The Journal of Biological Chemistry, 2016).

Common to all, as to conditions: both partners purified
The target of test [1] is T1, IQGAP1 GRD1-RGCT S1441E (aa 877-1558) (human, UniProt P46940 877-1558, S1441E).
T1 construct: human IQGAP1 aa 877-1558 with the phosphomimetic mutation S1441E, from the vector pET46 EkLIC; source: E. coli (pLysS BL21(DE3), CodonPlusRIL or BL21(Rosetta)), purified (Ni-NTA, gel filtration)
T1 sequence (looked up): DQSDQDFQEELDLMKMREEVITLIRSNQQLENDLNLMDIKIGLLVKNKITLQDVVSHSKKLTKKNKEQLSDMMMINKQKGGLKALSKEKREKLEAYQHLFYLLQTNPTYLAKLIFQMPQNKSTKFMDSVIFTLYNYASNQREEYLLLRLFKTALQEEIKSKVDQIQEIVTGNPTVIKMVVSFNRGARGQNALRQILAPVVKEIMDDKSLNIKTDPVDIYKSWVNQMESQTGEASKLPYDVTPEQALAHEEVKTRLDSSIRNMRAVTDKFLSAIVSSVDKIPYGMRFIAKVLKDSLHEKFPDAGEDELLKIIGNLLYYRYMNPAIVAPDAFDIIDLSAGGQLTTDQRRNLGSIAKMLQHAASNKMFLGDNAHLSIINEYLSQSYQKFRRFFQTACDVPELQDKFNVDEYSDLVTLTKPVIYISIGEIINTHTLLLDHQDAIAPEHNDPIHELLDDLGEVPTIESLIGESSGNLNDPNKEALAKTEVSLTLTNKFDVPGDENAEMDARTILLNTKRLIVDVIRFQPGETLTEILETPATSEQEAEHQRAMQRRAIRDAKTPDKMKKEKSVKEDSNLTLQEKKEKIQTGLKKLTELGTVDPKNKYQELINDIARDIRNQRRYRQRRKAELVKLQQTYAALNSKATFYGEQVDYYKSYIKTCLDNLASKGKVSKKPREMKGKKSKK
Description: stopped-flow fluorometry; mGppNHp-bound RHO protein (0.2 μM) rapidly mixed with IQGAP1 variant (2 μM, or 2-12 μM for kon); koff by displacement with 10 μM non-fluorescent GppNHp-bound GTPase; Kd = koff/kon; 30 mM Tris-HCl pH 7.5, 10 mM KH2PO4/K2HPO4, 5 mM MgCl2, 3 mM DTT.

Test [2] deals with T2, IQGAP1 GRD1-CT (aa 863-1657) (human, UniProt P46940 863-1657).
T2 construct: human IQGAP1, GRD, RGCT and CT domains, aa 863-1657; The GST tag was cleaved 'if needed'; also called C-terminal half of IQGAP1; C-terminal 795 amino acids of IQGAP1
T2 sequence (looked up): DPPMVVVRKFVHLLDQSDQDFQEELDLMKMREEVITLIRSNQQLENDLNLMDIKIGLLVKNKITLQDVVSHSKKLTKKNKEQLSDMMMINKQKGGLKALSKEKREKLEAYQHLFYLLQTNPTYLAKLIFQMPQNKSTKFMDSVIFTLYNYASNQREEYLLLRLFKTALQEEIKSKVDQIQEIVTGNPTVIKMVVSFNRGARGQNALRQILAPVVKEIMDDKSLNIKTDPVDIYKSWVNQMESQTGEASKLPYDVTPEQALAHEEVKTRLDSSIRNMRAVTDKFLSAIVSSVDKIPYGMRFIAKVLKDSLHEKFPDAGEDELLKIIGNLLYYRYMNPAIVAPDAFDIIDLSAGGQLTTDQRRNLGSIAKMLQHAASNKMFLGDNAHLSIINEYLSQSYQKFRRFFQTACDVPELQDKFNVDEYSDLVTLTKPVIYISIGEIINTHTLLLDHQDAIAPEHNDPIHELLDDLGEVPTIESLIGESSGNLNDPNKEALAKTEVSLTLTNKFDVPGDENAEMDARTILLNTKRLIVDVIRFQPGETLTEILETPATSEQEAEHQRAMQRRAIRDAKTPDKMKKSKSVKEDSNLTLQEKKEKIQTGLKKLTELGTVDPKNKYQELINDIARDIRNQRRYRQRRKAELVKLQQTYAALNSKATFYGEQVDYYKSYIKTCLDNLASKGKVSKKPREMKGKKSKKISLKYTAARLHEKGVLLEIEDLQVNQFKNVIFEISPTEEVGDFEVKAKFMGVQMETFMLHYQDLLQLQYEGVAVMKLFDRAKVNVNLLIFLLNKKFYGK
Description: fluorescence polarisation; IQGAP1 variant titrated to mGppNHp-bound RHO protein (1 μM); equilibrium Kd (eKd), quadratic fit; 30 mM Tris/HCl pH 7.5, 150 mM NaCl, 5 mM MgCl2, 3 mM DTT, 25 °C. In general terms: Polarisation of emitted light reports the rotation of a fluorescent probe.

Test [3] addresses T1, IQGAP1 GRD1-RGCT S1441E (aa 877-1558). The test is described as above.

B1: CDC42 (aa 1-178) (domain or fragment)
chain: not shown
notes: human CDC42, C-terminally truncated, aa 1-178; Loaded non-covalently with mGppNHp, tGppNHp, mGDP or non-fluorescent GppNHp; the nucleotide is named in the format of each assay; also called CDC42^WT; CDC42-mGppNHp
The Kd is a measure of binding affinity in units of concentration. Take B1: the Kd in test [1] amounted to 2050 nM; in test [2] it was 3.4 µM; in test [3], 3.6 µM.
